In IntAct's records for PubMed 23222540:

Target: ogt1_human OGT (UniProt O15294)
Chain of UniProt O15294 (O15294 whole entry): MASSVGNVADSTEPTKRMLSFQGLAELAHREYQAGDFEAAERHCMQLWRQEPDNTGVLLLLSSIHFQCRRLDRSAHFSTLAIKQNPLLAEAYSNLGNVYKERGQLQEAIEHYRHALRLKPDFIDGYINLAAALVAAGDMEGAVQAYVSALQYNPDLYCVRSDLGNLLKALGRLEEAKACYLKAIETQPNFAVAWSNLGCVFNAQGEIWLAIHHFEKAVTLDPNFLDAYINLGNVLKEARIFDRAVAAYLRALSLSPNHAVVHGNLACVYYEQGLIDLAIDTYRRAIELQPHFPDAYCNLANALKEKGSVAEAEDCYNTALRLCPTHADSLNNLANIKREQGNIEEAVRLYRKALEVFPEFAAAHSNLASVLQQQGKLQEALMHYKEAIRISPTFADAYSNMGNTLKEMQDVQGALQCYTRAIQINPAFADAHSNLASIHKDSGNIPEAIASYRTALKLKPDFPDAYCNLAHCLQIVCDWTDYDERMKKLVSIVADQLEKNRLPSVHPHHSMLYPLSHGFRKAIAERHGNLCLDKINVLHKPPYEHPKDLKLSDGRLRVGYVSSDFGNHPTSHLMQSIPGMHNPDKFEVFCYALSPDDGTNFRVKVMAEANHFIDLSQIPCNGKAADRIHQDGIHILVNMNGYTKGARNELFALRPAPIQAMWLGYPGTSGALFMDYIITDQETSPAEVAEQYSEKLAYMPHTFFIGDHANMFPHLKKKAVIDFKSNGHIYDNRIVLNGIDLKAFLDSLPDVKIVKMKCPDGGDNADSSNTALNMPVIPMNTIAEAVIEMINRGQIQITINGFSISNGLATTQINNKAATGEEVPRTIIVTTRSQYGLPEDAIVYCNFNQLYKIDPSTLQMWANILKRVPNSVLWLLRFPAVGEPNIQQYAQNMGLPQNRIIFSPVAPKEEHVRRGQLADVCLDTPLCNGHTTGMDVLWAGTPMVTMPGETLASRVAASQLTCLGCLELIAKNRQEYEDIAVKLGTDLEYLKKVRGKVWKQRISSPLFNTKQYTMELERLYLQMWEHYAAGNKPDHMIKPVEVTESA

With “Methylcytosine dioxygenase TET2 (Homo sapiens), Q6N021-1 H1382Y;D1384A” the “effect of a mutation on the interaction” value was “with no effect”.
